{"source": "paper doi:10.1101/2022.06.02.494630", "about": "(bioRxiv, 2022)", "binders": {"B1": {"name": "GST-tagged recombinant PfPHB1 (natural protein, Plasmodium falciparum (3D7), UniProt Q8IBC3 1-272, looked up)", "chain": "MERILSSIGKLSVVAGGLSLIPYTFIYDVDGGERCVMFNRFGGVSENTFGEGSHFYVPWFQTPYIYDIKMKPKVINTTTGTRDLQIVTISLRLLFRPHTQHLPYLHSTLGPDYDERVLPSIGNEVLKAVVAKYNAESLLTQRDKISKEIRESITARAKHFNILLDDVAITHLSYGKEFAKAIEDKQVAQQESERVKFIVAKTEQEKIAAVIKAQGEAEAAKLISSAVKEYGKSLIEIRKLEAAKEIAENLSKSKNVTYFPSNSNILLNPRDF", "modifications": "Lysine reactive dye (Monolith Protein Labelling Kit Red-NHS 2nd Generation), in the MST only"}}, "biological_target": "T1, GST-tagged recombinant PfPHB2 (Plasmodium falciparum (3D7), UniProt Q8IJP8 1-304)", "T1 sequence (looked up)": "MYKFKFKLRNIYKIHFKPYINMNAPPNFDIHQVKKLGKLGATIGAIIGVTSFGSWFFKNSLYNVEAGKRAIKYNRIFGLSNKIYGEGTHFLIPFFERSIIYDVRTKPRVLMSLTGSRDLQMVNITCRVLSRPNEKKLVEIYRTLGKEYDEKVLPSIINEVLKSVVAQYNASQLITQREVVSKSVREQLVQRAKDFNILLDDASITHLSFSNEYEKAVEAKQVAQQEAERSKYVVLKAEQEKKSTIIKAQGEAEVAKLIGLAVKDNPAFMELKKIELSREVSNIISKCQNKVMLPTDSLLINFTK", "assay": "MST", "data": [{"binder": "B1", "values": [{"measurement": "Kd", "value": "136 ± 10.5", "unit": "nM"}]}]}
